From patent US20210324099A1 (Chugai, published 2021) come the findings set out here.

Assay [1] deals with T1, hFcgRIIIaV (human, UniProt P08637 17-208).
T1 construct: extracellular domain; also called human FcγRIIIa allotype V158
As to the kind of experiment: SPR 25C; relative to A375-G1T3/B167-Lamlib.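 Further: SPR with antibody captured on an anti-human Fab-lambda chip, human FcγR analyte at 8 nM for FcγRIa or 1000 nM for the others, pH 7.4, FcγR RU per captured antibody unit.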

For assay [2], the target named is T2, hFcgRIIIaF (human, UniProt P08637 17-208).
T2 construct: extracellular domain; also called human FcγRIIIa allotype F158
T2 sequence (P08637 17-208): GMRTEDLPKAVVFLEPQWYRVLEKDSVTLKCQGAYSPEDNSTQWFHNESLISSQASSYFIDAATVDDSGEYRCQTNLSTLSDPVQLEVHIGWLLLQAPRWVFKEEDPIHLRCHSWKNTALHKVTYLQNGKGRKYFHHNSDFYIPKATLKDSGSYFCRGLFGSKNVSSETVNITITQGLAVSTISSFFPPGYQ
Nature of the assay: SPR 25C; relative to A375-G1T3/B167-Lamlib.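 Further: SPR with antibody captured on an anti-human Fab-lambda chip, human FcγR analyte at 8 nM for FcγRIa or 1000 nM for the others, pH 7.4, FcγR RU per captured antibody unit.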

Assay [3] concerns the target T3, hFcgRIa (human, UniProt P12314 16-292).
T3 construct: extracellular domain; also called human FcγRIa; FcγRI
As to the kind of experiment: SPR 25C; relative to A375-G1T3/B167-Lamlib.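 Further: SPR with antibody captured on an anti-human Fab-lambda chip, human FcγR analyte at 8 nM for FcγRIa or 1000 nM for the others, pH 7.4, FcγR RU per captured antibody unit.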

For assay [4], the target named is T4, hFcgRIIaR (human, UniProt P12318 34-217).
T4 construct: extracellular domain; also called human FcγRIIa type R (R131)
T4 sequence (looked up): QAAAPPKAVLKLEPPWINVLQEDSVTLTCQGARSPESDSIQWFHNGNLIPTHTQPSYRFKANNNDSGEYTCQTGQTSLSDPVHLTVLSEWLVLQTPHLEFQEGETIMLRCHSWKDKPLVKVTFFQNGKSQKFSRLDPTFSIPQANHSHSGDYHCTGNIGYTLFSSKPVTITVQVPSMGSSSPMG
As to the kind of experiment: SPR 25C; relative to A375-G1T3/B167-Lamlib.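 Further: SPR with antibody captured on an anti-human Fab-lambda chip, human FcγR analyte at 8 nM for FcγRIa or 1000 nM for the others, pH 7.4, FcγR RU per captured antibody unit.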

Assay [5] has as its target T5, hFcgRIIb (human, UniProt P31994 43-217).
T5 construct: extracellular domain; also called human FcγRIIb
T5 sequence (looked up): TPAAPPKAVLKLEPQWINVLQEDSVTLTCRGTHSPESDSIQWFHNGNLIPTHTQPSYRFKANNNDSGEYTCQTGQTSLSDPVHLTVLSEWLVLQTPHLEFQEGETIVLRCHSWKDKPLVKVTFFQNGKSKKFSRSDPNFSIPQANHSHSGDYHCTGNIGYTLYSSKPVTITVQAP
As to the kind of experiment: SPR 25C; relative to A375-G1T3/B167-Lamlib.

Assay [6] concerns the target T6, hFcgRIIaH (human, UniProt P12318 34-217).
T6 construct: extracellular domain; also called human FcγRIIa type H (H131)
T6 sequence (looked up): T4 sequence (looked up) with R134H
Nature of the assay: SPR 25C; relative to A375-G1T3/B167-Lamlib.

The target in assay [7] is T1, hFcgRIIIaV. As to the kind of experiment: SPR 25C.
The target in assay [8] is T2, hFcgRIIIaF. Nature of the assay: SPR 25C.
Assay [9] deals with T3, hFcgRIa. As to the kind of experiment: SPR 25C.
In assay [10] the target is T4, hFcgRIIaR. As to the kind of experiment: SPR 25C.
For assay [11], the target named is T5, hFcgRIIb. As to the kind of experiment: SPR 25C.
In assay [12] the target is T6, hFcgRIIaH. As to the kind of experiment: SPR 25C.
The target in another assay is human FcRn (human, UniProt P55899 24-290; P61769 21-119, limits assumed). Nature of the assay: SPR 25C pH 6.0, steady state.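 Further: antibody captured on chip via anti-human Fab-lambda ligand, human FcRn injected as analyte in 50 mM phosphate buffer with 150 mM NaCl and P20.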
human FcRn, sequence (P55899 24-290 limits assumed, chain 1 of 2): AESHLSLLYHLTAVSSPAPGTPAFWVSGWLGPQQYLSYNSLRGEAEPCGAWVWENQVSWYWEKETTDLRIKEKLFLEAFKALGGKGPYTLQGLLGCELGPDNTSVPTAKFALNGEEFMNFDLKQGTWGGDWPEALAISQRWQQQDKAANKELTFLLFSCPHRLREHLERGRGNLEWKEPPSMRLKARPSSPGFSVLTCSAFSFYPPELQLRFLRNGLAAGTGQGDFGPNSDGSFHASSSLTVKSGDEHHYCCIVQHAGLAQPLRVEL
human FcRn, sequence (P61769 21-119 limits assumed, chain 2 of 2): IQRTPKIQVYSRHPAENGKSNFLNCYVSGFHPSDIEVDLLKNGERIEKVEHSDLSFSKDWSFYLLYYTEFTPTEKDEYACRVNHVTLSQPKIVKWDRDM

Where a chain is given by its changes, count along the chain named.
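Wherever binding per 1RU of antibody is given: biacore SPR with antibody captured on an anti-human Fab lambda chip, human FcγR injected at 1000 nM (FcγRIa at 8 nM) in pH 7.4 phosphate buffer.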

T1 sequence (P08637 17-208 F176V): as the sequence (P08637 17-208) above, with F160V counted along it
T3 sequence (P12314 16-292): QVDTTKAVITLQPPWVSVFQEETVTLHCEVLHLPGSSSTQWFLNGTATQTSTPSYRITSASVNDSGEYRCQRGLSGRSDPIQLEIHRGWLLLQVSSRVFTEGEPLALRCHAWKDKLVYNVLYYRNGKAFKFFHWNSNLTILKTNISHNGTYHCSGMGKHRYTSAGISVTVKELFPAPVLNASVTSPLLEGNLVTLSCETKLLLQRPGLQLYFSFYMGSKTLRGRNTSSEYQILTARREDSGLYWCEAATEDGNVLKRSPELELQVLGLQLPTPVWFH
Description for human FcRn: Biacore T200 (GE Healthcare) was used to assess the binding activity to human FcRn. Measurement was performed at 25° C. using 50 mM phosphate, 150 mM NaCl, 0.05 w/v %-P20, pH 6.0 as buffer. […] About 400 RU of antibody was captured using a sensor chip immobilized with CaptureSelect™ Human Fab-lambda Kinetics Biotin Conjugate (Thermo Fisher Scientific) as a molecule for ligand capturing, followed by the binding of human FcRn diluted in measuring buffer. The activity of the respective antibodies to bind FcRn was assessed by calculating KD (mol/L) by the steady-state model using Biacore T200 Evaluation Software 2.0.

B1: A375-P587/B167-Lamlib (antibody, human IgG1, lambda)
heavy: EVQLVESGGGLVKPGGSLRLSCAASGFTFSTFTMNWVRQAPGKGLEWVSSISSKSTYIEYADSFKVRFTISRDNAKNSLYLQMNSLRAEDTAVYYCARYGAKNFLNWVFDYWGQGTLVTVSSASTKGPSVFPLAPSSKSTSGGTAALGCLVKDYFPEPVTVSWNSGALTSGVHTFPAVLQSSGLYSLSSVVTVPSSSLGTQTYICNVNHKPSNTKVDKKVEPKSCDKTHTCPPCPAPDLLGGDSVFLFPPKPKDTLMISRTPEVTCVVIDVAEEDGEVKFNWYVDGVEVHNAKTKPREEQYNSTYRVVSVLTVLHQDWLNGKEYKCKVSNKALPAPIEKTISKAKGQPREPQVYTLPPSRDELTKNQVSLTCLVKGFYPSDIAVEWESNGQPENNYKTTPPVLDSDGSFFLYSKLTVDKSRWQQGNVFSCSVMHEALHNHYTQKSLSLSP
light: QSALTQPPSASGSPGQTVTISCTGTRYDVGYYEYVSWYQQHPGKAPKLMIYETSKRLSGVPDRFSGSKSGNTASLTVSGLQAEDEADYYCSSYRYEHQVSFGGGTKLTVLGQPKAAPSVTLFPPSSEELQANKATLVCLISDFYPGAVTVAWKADSSPVKAGVETTTPSKQSNNKYAASSYLSLTPEQWKSHRSYSCQVTHEGSTVEKTVAPTECS
notes: copies: 2 + 2
For the molecule B1, the relative binding amount with hFcgRIIIaV [1] came to 0; with hFcgRIIIaF [2], 0; with hFcgRIa [3] it was 1.18; with hFcgRIIaR [4] it was 0.8; with hFcgRIIb [5] it was 13; in the assay with hFcgRIIaH [6], 0.05. In addition, the “binding per 1RU of antibody” value with hFcgRIIIaV [7] is 0.0001 RU; with hFcgRIIIaF [8], 0.0001 RU; with hFcgRIa [9], 0.0962 RU; with hFcgRIIaR [10] it was 0.0371 RU; with hFcgRIIb [11] it was 0.143 RU; in the assay with hFcgRIIaH [12] it was 0.0029 RU. Also, in the assay with human FcRn, binding was put at a Kd of 1.7 µM.

B2: A375-SCF030/B167-Lamlib (antibody, human IgG1, lambda)
heavy: EVQLVESGGGLVKPGGSLRLSCAASGFTFSTFTMNWVRQAPGKGLEWVSSISSKSTYIEYADSFKVRFTISRDNAKNSLYLQMNSLRAEDTAVYYCARYGAKNFLNWVFDYWGQGTLVTVSSASTKGPSVFPLAPSSKSTSGGTAALGCLVKDYFPEPVTVSWNSGALTSGVHTFPAVLQSSGLYSLSSVVTVPSSSLGTQTYICNVNHKPSNTKVDKKVEPKSCDKTHTCPPCPAPELWNGPSVFLFPPKPKDTLMISRTPEVTCVVVDVSDEDPEVKFNWYVDGVEVHNAKTKPREELYNSTYRVVSVLTVLHRDWLNGKEYKCKVSNTALPKPIEKTISKAKGQRREPQVYTLPPSREEMTKNQVSLTCLVKGFYPSDIAVEWESNGQPENNYKTTPPVLDSDGSFFLYSKLTVDKSRWQQGNVFSCSVMHEALHNHYTQKSLSLSP
light: B1 light
Turning to B2, the relative binding amount in the assay with hFcgRIIIaV [1] was determined as 0.03; with hFcgRIIIaF [2], 0.08; with hFcgRIa [3] it was 0.02; with hFcgRIIaR [4] it was 1.15; in the assay with hFcgRIIb [5], 4.85; with hFcgRIIaH [6], 0.94. Also, the “binding per 1RU of antibody” value in the assay with hFcgRIIIaV [7] stood at 0.002 RU; with hFcgRIIIaF [8] it was 0.0017 RU; with hFcgRIa [9], 0.002 RU; with hFcgRIIaR [10], 0.0532 RU; in the assay with hFcgRIIb [11], 0.0532 RU; with hFcgRIIaH [12] it was 0.0533 RU. Binding in the assay with human FcRn was put at a Kd of 0.863 µM.

B3: A375-SCF025/B167-Lamlib (antibody, human IgG1, lambda)
heavy: B2 heavy with R316Q, D418K
light: B1 light
For B3, the relative binding amount with hFcgRIIIaV [1] is 0.02; in the assay with hFcgRIIIaF [2], 0.06; with hFcgRIa [3], 0.03; with hFcgRIIaR [4] it was 1.12; with hFcgRIIb [5], 4.67; in the assay with hFcgRIIaH [6] it was 0.91. Also, the “binding per 1RU of antibody” value was determined as 0.0014 RU in the assay with hFcgRIIIaV [7]; 0.0012 RU with hFcgRIIIaF [8]; 0.0022 RU with hFcgRIa [9]; 0.0519 RU with hFcgRIIaR [10]; 0.0512 RU with hFcgRIIb [11]; 0.0514 RU with hFcgRIIaH [12]. For the same molecule, in the assay with human FcRn, the Kd (usually the constant that tells how readily two partners part at equilibrium) turned out to be 1.1 µM.

B4: A375-SCF025a/B167-Lamlib (antibody, human IgG1, lambda)
heavy: B2 heavy with K219R, R316Q, D418K
light: B1 light
In the case of B4, the relative binding amount amounted to 0.02 with hFcgRIIIaV [1]; 0.04 with hFcgRIIIaF [2]; 0.03 with hFcgRIa [3]; 1.12 in the assay with hFcgRIIaR [4]; 4.67 in the assay with hFcgRIIb [5]; 0.91 with hFcgRIIaH [6]. The “binding per 1RU of antibody” value with hFcgRIIIaV [7] turned out to be 0.0016 RU; with hFcgRIIIaF [8] it was 0.0009 RU; with hFcgRIa [9] it was 0.0021 RU; with hFcgRIIaR [10], 0.0518 RU; in the assay with hFcgRIIb [11], 0.0511 RU; in the assay with hFcgRIIaH [12] it was 0.0514 RU. In the assay with human FcRn, this molecule returned a Kd of 1.13 µM.

B5: A375-SCF028/B167-Lamlib (antibody, human IgG1, lambda)
heavy: EVQLVESGGGLVKPGGSLRLSCAASGFTFSTFTMNWVRQAPGKGLEWVSSISSKSTYIEYADSFKVRFTISRDNAKNSLYLQMNSLRAEDTAVYYCARYGAKNFLNWVFDYWGQGTLVTVSSASTKGPSVFPLAPSSKSTSGGTAALGCLVKDYFPEPVTVSWNSGALTSGVHTFPAVLQSSGLYSLSSVVTVPSSSLGTQTYICNVNHKPSNTKVDKKVEPKSCDKTHTCPPCPAPEYLGDDSVFLFPPKPKDVLMISRTPEVTCVVVDVSHEDPEVKFNWYVDGVEVHNAKTKPREEQYNSTYRVVSVLPVLHQDWLNGKEYKCKVSNKALPKPIEKTISKAKGQRREPQVYTLPPSREEMTKNQVSLTCLVKGFYPSDIAVEWESNGQPENNYKTTPPVLDSDGSFFLYSKLTVKKSRWQQGNVFSCSVMHEALHNHYTQKSLSLSP
light: B1 light
Turning to B5, the relative binding amount with hFcgRIIIaV [1] was -0.01; with hFcgRIIIaF [2] it was -0.04; with hFcgRIa [3] it was 0.03; with hFcgRIIaR [4], 0.64; with hFcgRIIb [5], 9.08; in the assay with hFcgRIIaH [6], 0.18. For the same molecule, the “binding per 1RU of antibody” value with hFcgRIIIaV [7] is -0.001 RU; in the assay with hFcgRIIIaF [8], -0.0009 RU; with hFcgRIa [9] it was 0.0027 RU; with hFcgRIIaR [10], 0.0299 RU; with hFcgRIIb [11], 0.0995 RU; in the assay with hFcgRIIaH [12] it was 0.0101 RU. This molecule also came in with a Kd with human FcRn of 1.27 µM.

B6: A375-SCF027/B167-Lamlib (antibody, human IgG1, lambda)
heavy: B5 heavy with D242G, V269I
light: B1 light
notes: also called A375-SCF027/B167-LamLab
As to B6, the relative binding amount in the assay with hFcgRIIIaV [1] was -0.01; with hFcgRIIIaF [2], -0.02; in the assay with hFcgRIa [3] it was 0.05; with hFcgRIIaR [4] it was 0.12; in the assay with hFcgRIIb [5], 6.99; with hFcgRIIaH [6] it was 0.06. Also, the “binding per 1RU of antibody” value with hFcgRIIIaV [7] was -0.0006 RU; with hFcgRIIIaF [8], -0.0005 RU; with hFcgRIa [9] it was 0.0044 RU; in the assay with hFcgRIIaR [10], 0.0058 RU; in the assay with hFcgRIIb [11], 0.0766 RU; with hFcgRIIaH [12], 0.0031 RU. Binding in the assay with human FcRn was put at a Kd of 1.33 µM.
